Experimental data: US10618965 (dated 2020)

Key:
[1] = target: human FcRn (with beta2-microglobulin) (human); assay: SPR, pH 7.0
human FcgRIIb = target: T1, human FcgRIIb (human); assay: SPR
T1 chain: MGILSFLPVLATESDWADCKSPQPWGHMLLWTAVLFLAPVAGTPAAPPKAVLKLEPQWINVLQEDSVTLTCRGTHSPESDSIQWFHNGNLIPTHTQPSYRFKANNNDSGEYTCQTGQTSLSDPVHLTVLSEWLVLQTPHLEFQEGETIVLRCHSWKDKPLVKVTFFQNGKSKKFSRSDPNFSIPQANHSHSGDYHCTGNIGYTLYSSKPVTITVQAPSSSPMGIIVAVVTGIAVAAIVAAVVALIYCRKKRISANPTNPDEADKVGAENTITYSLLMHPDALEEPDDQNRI

human FcgRIIa(R) = target: T2, human FcgRIIa(R) (human); assay: SPR
T2 chain: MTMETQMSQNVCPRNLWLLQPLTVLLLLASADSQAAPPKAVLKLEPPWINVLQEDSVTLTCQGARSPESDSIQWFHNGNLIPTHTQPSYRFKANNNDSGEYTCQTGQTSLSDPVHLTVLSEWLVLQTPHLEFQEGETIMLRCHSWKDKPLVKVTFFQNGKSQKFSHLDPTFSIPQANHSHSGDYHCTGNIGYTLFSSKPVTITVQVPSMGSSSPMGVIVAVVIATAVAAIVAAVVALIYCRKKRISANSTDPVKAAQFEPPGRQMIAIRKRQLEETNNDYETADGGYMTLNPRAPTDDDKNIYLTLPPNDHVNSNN

human FcgRIa = human FcgRIa (human); assay: SPR
Chain of human FcgRIa (human) (chain, as listed by the source): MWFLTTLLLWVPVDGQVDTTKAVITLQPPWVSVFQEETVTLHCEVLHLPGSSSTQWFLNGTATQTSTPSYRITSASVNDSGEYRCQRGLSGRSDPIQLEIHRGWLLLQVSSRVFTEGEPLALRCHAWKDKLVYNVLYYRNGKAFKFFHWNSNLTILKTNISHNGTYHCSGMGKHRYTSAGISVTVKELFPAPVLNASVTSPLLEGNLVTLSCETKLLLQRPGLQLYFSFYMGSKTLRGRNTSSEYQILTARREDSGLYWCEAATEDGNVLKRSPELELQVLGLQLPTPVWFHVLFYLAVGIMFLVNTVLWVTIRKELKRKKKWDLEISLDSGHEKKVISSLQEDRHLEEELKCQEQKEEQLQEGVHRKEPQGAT

Chain of human FcRn (with beta2-microglobulin) (human) (chain, as listed by the source, chain 1 of 2): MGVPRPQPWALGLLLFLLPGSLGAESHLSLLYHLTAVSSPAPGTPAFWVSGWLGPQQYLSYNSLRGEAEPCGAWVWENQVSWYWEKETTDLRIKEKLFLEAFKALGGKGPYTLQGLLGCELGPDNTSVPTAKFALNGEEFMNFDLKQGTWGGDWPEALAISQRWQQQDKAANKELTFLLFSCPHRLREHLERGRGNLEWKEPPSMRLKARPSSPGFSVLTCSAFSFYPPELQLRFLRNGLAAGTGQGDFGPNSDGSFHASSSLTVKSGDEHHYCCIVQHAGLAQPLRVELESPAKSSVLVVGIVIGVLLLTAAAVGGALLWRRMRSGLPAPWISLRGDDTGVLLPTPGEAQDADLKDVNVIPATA
Chain of human FcRn (with beta2-microglobulin) (human) (chain, as listed by the source, chain 2 of 2): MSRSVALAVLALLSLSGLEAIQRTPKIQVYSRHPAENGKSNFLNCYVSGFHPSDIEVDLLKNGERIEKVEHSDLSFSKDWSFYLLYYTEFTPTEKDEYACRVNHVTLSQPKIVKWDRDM

B1: F1327 (antibody)
chain 1: QVQLQESGPGLVKPSETLSLTCAVSGHSISHDHAWSWVRQPPGEGLEWIGFISYSGITNYNPSLQGRVTISRDNSKNTLYLQMNSLRAEDTAVYYCARSLARTTAMDYWGEGTLVTVSSASTKGPSVFPLAPSSKSTSGGTAALGCLVKDYFPEPVTVSWNSGALTSGVHTFPAVLQSSGLYSLSSVVTVPSSSLGTQTYICNVNHKPSNTKVDKKVEPKSCDKTHTCPPCPAPEAAGGPSVFLFPPKPKDVLYISRTPEVTCVVVDVSHEDPEVKFNWYVDGVEVHNAKTKPREEQYASTYRVVSVLQPLHADWLNGKEYKCKVSNKALPAPIEKTISKAKGQPREPQVYTLPPSRDELTKNQVSLTCLVKGFYPSDIAVEWESNGQPENNYKTTPPVLDSDGSFFLYSKLTVDKSRWQQGNVFSCSVMHEALHYHVTQKSLSLSP
chain 2: not shown
[1]
  Kd: 14 nM

B2: IL6R-BP132 (antibody)
chain 1: QVQLQESGPGLVKPSETLSLTCAVSGHSISHDHAWSWVRQPPGEGLEWIGFISYSGITNYNPSLQGRVTISRDNSKNTLYLQMNSLRAEDTAVYYCARSLARTTAMDYWGEGTLVTVSSASTKGPSVFPLAPSSKSTSGGTAALGCLVKDYFPEPVTVSWNSGALTSGVHTFPAVLQSSGLYSLSSVVTVPSSSLGTQTYICNVNHKPSNTKVDKKVEPKSCDKTHTCPPCPAPDLLGGDSVFLFPPKPKDTLMISRTPEVTCVVVDVSHEDPEVKFNWYVDGVEVHNAKTKPREEQYNSTYRVVSVLTVLHQDWLNGKEYKCKVSNAALPKPIEKTISKAKGQPREPQVYTLPPSRDELTKNQVSLTCLVKGFYPSDIAVEWESNGQPENNYKTTPPVLDSDGSFFLYSKLTVDKSRWQQGNVFSCSVMHEALHNHYTQESLSLSP
chain 2: DIQMTQSPSSLSASVGDRVTITCRASQDISSYLNWYQQKPGKAPKLLIYYTSRLHSGVPSRFSGSGSGTDFTFTISSLQPEDIATYYCQQGNTLPYTFGQGTKVEIK
Human FcgRIIb
  Kd: 270 nM
Human FcgRIIa(R)
  Kd: 8000 nM
Human FcgRIa
  Kd: 1.5 nM

B3: IL6R-BP089 (antibody)
chain 1: QVQLQESGPGLVKPSETLSLTCAVSGHSISHDHAWSWVRQPPGEGLEWIGFISYSGITNYNPSLQGRVTISRDNSKNTLYLQMNSLRAEDTAVYYCARSLARTTAMDYWGEGTLVTVSSASTKGPSVFPLAPSSKSTSGGTAALGCLVKDYFPEPVTVSWNSGALTSGVHTFPAVLQSSGLYSLSSVVTVPSSSLGTQTYICNVNHKPSNTKVDKKVEPKSCDKTHTCPPCPAPEYLGGDSVFLFPPKPKDTLMISRTPEVTCVVVDVSHEDPEVKFNWYVDGVEVHNAKTKPREEQYNSTYRVVSVLTVLHQDWLNGKEYKCKVSNAALPKPIEKTISKAKGQPREPQVYTLPPSRDELTKNQVSLTCLVKGFYPSDIAVEWESNGQPENNYKTTPPVLDSDGSFFLYSKLTVDKSRWQQGNVFSCSVMHEALHNHYTQESLSLSP
chain 2: DIQMTQSPSSLSASVGDRVTITCRASQDISSYLNWYQQKPGKAPKLLIYYTSRLHSGVPSRFSGSGSGTDFTFTISSLQPEDIATYYCQQGNTLPYTFGQGTKVEIK
Human FcgRIIb
  Kd: 390 nM
Human FcgRIIa(R)
  Kd: 6400 nM
Human FcgRIa
  Kd: 63 nM

B4: IL6R-BP131 (antibody)
chain 1: QVQLQESGPGLVKPSETLSLTCAVSGHSISHDHAWSWVRQPPGEGLEWIGFISYSGITNYNPSLQGRVTISRDNSKNTLYLQMNSLRAEDTAVYYCARSLARTTAMDYWGEGTLVTVSSASTKGPSVFPLAPSSKSTSGGTAALGCLVKDYFPEPVTVSWNSGALTSGVHTFPAVLQSSGLYSLSSVVTVPSSSLGTQTYICNVNHKPSNTKVDKKVEPKSCDKTHTCPPCPAPDLLGDDSVFLFPPKPKDTLMISRTPEVTCVVVDVSHEDPEVKFNWYVDGVEVHNAKTKPREEQYNSTYRVVSVLTVLHQDWLNGKEYKCKVSNKALPKPIEKTISKAKGQPREPQVYTLPPSRDELTKNQVSLTCLVKGFYPSDIAVEWESNGQPENNYKTTPPVLDSDGSFFLYSKLTVDKSRWQQGNVFSCSVMHEALHNHYTQESLSLSP
chain 2: DIQMTQSPSSLSASVGDRVTITCRASQDISSYLNWYQQKPGKAPKLLIYYTSRLHSGVPSRFSGSGSGTDFTFTISSLQPEDIATYYCQQGNTLPYTFGQGTKVEIK
Human FcgRIIb
  Kd: 250 nM
Human FcgRIIa(R)
  Kd: 3100 nM
Human FcgRIa
  Kd: 120 nM

B5: IL6R-BP178 (antibody)
chain 1: QVQLQESGPGLVKPSETLSLTCAVSGHSISHDHAWSWVRQPPGEGLEWIGFISYSGITNYNPSLQGRVTISRDNSKNTLYLQMNSLRAEDTAVYYCARSLARTTAMDYWGEGTLVTVSSASTKGPSVFPLAPSSKSTSGGTAALGCLVKDYFPEPVTVSWNSGALTSGVHTFPAVLQSSGLYSLSSVVTVPSSSLGTQTYICNVNHKPSNTKVDKKVEPKSCDKTHTCPPCPAPDLLGDDSVFLFPPKPKDTLMISRTPEVTCVVVDVSHEDGEVKFNWYVDGVEVHNAKTKPREEQYNSTYRVVSVLTVLHQDWLNGKEYKCKVSNKALPKPIEKTISKAKGQPREPQVYTLPPSRDELTKNQVSLTCLVKGFYPSDIAVEWESNGQPENNYKTTPPVLDSDGSFFLYSKLTVDKSRWQQGNVFSCSVMHEALHNHYTQESLSLSP
chain 2: DIQMTQSPSSLSASVGDRVTITCRASQDISSYLNWYQQKPGKAPKLLIYYTSRLHSGVPSRFSGSGSGTDFTFTISSLQPEDIATYYCQQGNTLPYTFGQGTKVEIK
Human FcgRIIb
  Kd: 51 nM
Human FcgRIIa(R)
  Kd: 930 nM
Human FcgRIa
  Kd: 43 nM

B6: IL6R-BP144 (antibody)
chain 1: QVQLQESGPGLVKPSETLSLTCAVSGHSISHDHAWSWVRQPPGEGLEWIGFISYSGITNYNPSLQGRVTISRDNSKNTLYLQMNSLRAEDTAVYYCARSLARTTAMDYWGEGTLVTVSSASTKGPSVFPLAPSSKSTSGGTAALGCLVKDYFPEPVTVSWNSGALTSGVHTFPAVLQSSGLYSLSSVVTVPSSSLGTQTYICNVNHKPSNTKVDKKVEPKSCDKTHTCPPCPAPELLGDDSVFLFPPKPKDTLMISRTPEVTCVVVDVSHEDPEVKFNWYVDGVEVHNAKTKPREEQYNSTYRVVSVLTVLHQDWLNGKEYKCKVSNAALPAPIEKTISKAKGQPREPQVYTLPPSRDELTKNQVSLTCLVKGFYPSDIAVEWESNGQPENNYKTTPPVLDSDGSFFLYSKLTVDKSRWQQGNVFSCSVMHEALHNHYTQESLSLSP
chain 2: DIQMTQSPSSLSASVGDRVTITCRASQDISSYLNWYQQKPGKAPKLLIYYTSRLHSGVPSRFSGSGSGTDFTFTISSLQPEDIATYYCQQGNTLPYTFGQGTKVEIK
Human FcgRIIb
  Kd: 790 nM
Human FcgRIIa(R)
  Kd: 2900 nM
Human FcgRIa
  Kd: 3700 nM

B7: IL6R-BP087 (antibody)
chain 1: QVQLQESGPGLVKPSETLSLTCAVSGHSISHDHAWSWVRQPPGEGLEWIGFISYSGITNYNPSLQGRVTISRDNSKNTLYLQMNSLRAEDTAVYYCARSLARTTAMDYWGEGTLVTVSSASTKGPSVFPLAPSSKSTSGGTAALGCLVKDYFPEPVTVSWNSGALTSGVHTFPAVLQSSGLYSLSSVVTVPSSSLGTQTYICNVNHKPSNTKVDKKVEPKSCDKTHTCPPCPAPEYLGGDSVFLFPPKPKDTLMISRTPEVTCVVVDVSHEDPEVKFNWYVDGVEVHNAKTKPREEQYNSTYRVVSVLTVLHQDWLNGKEYKCKVSNKALPKPIEKTISKAKGQPREPQVYTLPPSRDELTKNQVSLTCLVKGFYPSDIAVEWESNGQPENNYKTTPPVLDSDGSFFLYSKLTVDKSRWQQGNVFSCSVMHEALHNHYTQESLSLSP
chain 2: DIQMTQSPSSLSASVGDRVTITCRASQDISSYLNWYQQKPGKAPKLLIYYTSRLHSGVPSRFSGSGSGTDFTFTISSLQPEDIATYYCQQGNTLPYTFGQGTKVEIK
Human FcgRIIb
  Kd: 610 nM
Human FcgRIIa(R)
  Kd: 9700 nM
Human FcgRIa
  Kd: 30 nM

B8: IL6R-BP152 (antibody)
chain 1: QVQLQESGPGLVKPSETLSLTCAVSGHSISHDHAWSWVRQPPGEGLEWIGFISYSGITNYNPSLQGRVTISRDNSKNTLYLQMNSLRAEDTAVYYCARSLARTTAMDYWGEGTLVTVSSASTKGPSVFPLAPSSKSTSGGTAALGCLVKDYFPEPVTVSWNSGALTSGVHTFPAVLQSSGLYSLSSVVTVPSSSLGTQTYICNVNHKPSNTKVDKKVEPKSCDKTHTCPPCPAPDYLGDDSVFLFPPKPKDTLMISRTPEVTCVVVDVSHEDPEVKFNWYVDGVEVHNAKTKPREEQDNSTYRVVSVLTVLHQDWLNGKEYKCKVSNAALPKPIEKTISKAKGQPREPQVYTLPPSRDELTKNQVSLTCLVKGFYPSDIAVEWESNGQPENNYKTTPPVLDSDGSFFLYSKLTVDKSRWQQGNVFSCSVMHEALHNHYTQESLSLSP
chain 2: DIQMTQSPSSLSASVGDRVTITCRASQDISSYLNWYQQKPGKAPKLLIYYTSRLHSGVPSRFSGSGSGTDFTFTISSLQPEDIATYYCQQGNTLPYTFGQGTKVEIK
Human FcgRIIb
  Kd: 41 nM
Human FcgRIIa(R)
  Kd: 810 nM
Human FcgRIa
  Kd: 73 nM

B9: IL6R-BP149 (antibody)
chain 1: QVQLQESGPGLVKPSETLSLTCAVSGHSISHDHAWSWVRQPPGEGLEWIGFISYSGITNYNPSLQGRVTISRDNSKNTLYLQMNSLRAEDTAVYYCARSLARTTAMDYWGEGTLVTVSSASTKGPSVFPLAPSSKSTSGGTAALGCLVKDYFPEPVTVSWNSGALTSGVHTFPAVLQSSGLYSLSSVVTVPSSSLGTQTYICNVNHKPSNTKVDKKVEPKSCDKTHTCPPCPAPDYLGDDSVFLFPPKPKDTLMISRTPEVTCVVVDVSHEDPEVKFNWYVDGVEVHNAKTKPREEQDNSTYRVVSVLTVLHQDWLNGKEYKCKVSNAALPKPIEKTISKAKGQPREPQVYTLPPSRDELTKNQVSLTCLVKGFYPSDIAVEWESNGQPENNYKTTPPVLDSDGSFFLYSKLTVDKSRWQQGNVFSCSVMHEALHNHYTQESLSLSP
chain 2: DIQMTQSPSSLSASVGDRVTITCRASQDISSYLNWYQQKPGKAPKLLIYYTSRLHSGVPSRFSGSGSGTDFTFTISSLQPEDIATYYCQQGNTLPYTFGQGTKVEIK
Human FcgRIIb
  Kd: 93 nM
Human FcgRIIa(R)
  Kd: 1400 nM
Human FcgRIa
  Kd: 120 nM
